# Results published in patent US6905849B1, “Process for preparing clavam derivatives by using polypeptides having β-lactam synthetase activity” (SmithKline Beecham plc, priority 1998, dated 2005).
# B1: orf3 product: polypeptide encoded by orf3 of the Streptomyces clavuligerus clavulanic acid gene cluster (SEQ ID NO:2), 56 KDa, β-lactam synthetase (protein, listed as Streptomyces clavuligerus)
# chain: GAPVLPAAFGFLASARTGGGRAPGPVFATRGSHTDIDTPQGERSLAATLVHAPSVAPDRAVARSLTGAPTTAVLAGEIYNRDELLSVLPAGPAPEGDAELVLRLLERYDLHAFRLVNGRFATVVRTGDRVLLATDHAGSVPLYTCVAPGEVRASTEAKALAAHRDPKGFPLADARRVAGLTGVYQVPAGAVMDIDLGSGTAVTHRTWTPGLSRRILPEGEAVAAVRAALEKAVAQRVTPGDTPLVVLSGGIDSSGVAACAHRAAGELDTVSMGTDTSNEFREARAVVDHLRTRHREITIPTTELLAQLPYAVWASESVDPDIIEYLLPLTALYRALDGPERRILTGYGADIPLGGMHREDRLPALDTVLAHDMATFDGLNEMSPVLSTLAGHWTTHPYWDREVLDLLVSLEAGLKRRHGRDKWVLRAAMADALPAETVNRPKLGVHEGSGTTSSFSRLLLDHGVAEDRVHEAKRQVVRELFDLTVGGGRHPSEVDTDDVVRSVADRTARGAA
# Experiment: Assay for conversion of compound (III) to compound (IV) by protein extracts, HPLC detection
# Format: biochemical, Streptomyces clavuligerus
# Conditions: recombinant orf3 protein from E. coli BL21(DE3)/pBLS3; ATP, Mg(AcO)2, MOPS pH 7.4; 37 °C, 15 minutes; underivatised and benzoin-derivatised HPLC
# Protocol: The crude extracts prepared from the recombinant E. coli containing the pBLS3vector (example 5) and the purified protein product (example 6) were tested for the ability to catalyse the conversion of the compound (III) to compound (IV). Both compound (III) and compound (IV) were prepared synthetically following previously published methods (Baldwin et al J. Chem Soc. Chem Comm. 1993 p500-2 and Elson et al J. Chem Soc. Chem Comm. 1993 p1212-4). Protein extracts were assayed for the conversion of compound (III) to compound (IV) under the following conditions: [table] The above mixture was heated at 37 ° C. for 15 minutes before being analysed by the HPLC methods described below. This assay was carried out using the following equipment and conditions • Waters 746 data module • Waters 600E system controller • Waters 712 WISP injector • Waters 848 tunable absorbance detector The protocol used was Kai et al. (M. Kai, T. Miyazaki, M. Yamaguchi, Y Ohkura, J. Chromatog. 268, 417-424, 1983) which assays for compounds containing guanidino functionalities using a fluorescence detector. […]
molecule,measurement,value
B1,β-lactam synthetase activity: conversion of compound (III) to compound (IV),catalysis the conversion of compound (III) to compound (IV)
